From patent US20230190885A1, “PLACENTAL ALKALINE PHOSPHATASE TO PROMOTE SCAR-FREE HEALING OF ACNE VULGARIS AND OTHER INFLAMMATORY SKIN LESIONS CAUSED BY MICROBIAL INFECTIONS” (priority 2021, published 2023)

Legend:
CCD 966 SK fibroblasts = test: MTT assay, proliferation/viability of CCD 966 SK fibroblasts; format: cell-based, human; conditions: 72 hours; for Viability of Cells (Absorption: A540) CCD 966 SK: MTT, 200 nM PLAP or rPLAP, 100 µM ATP, mean ± S.D. of eight wells
Description: CCD 966 SK fibroblasts, originally derived from a subject and purchased from American Type Culture Collection (Alexandria, Virginia), were at passage 5 when used. The fibroblasts were maintained and treated as described above for the HaCaT cells.
(§1) The relative changes in the number of viable cells were determined by the MTT assay. This colorimetric assay is based on the ability of living healthy cells (mostly the mitochondrial compartment), but not dead cells, to reduce 3-(4,5-dimethyl thizaol-2-yl)-[…] to a blue formazan product [Carmichael, J., De Graft, W.G., Gazdar, A.F., Minna, J.D. and Mitchell, J.B. Evaluation of tetrazolium-based semi-automated colorimetric assay: Assessment of chemosensitivity resting. Cancer Res. 47, 936-942, 1987] This technique is a widely used and accepted method to accurately determine the relative numbers of viable cells. For example, this is the official method used by the National Cancer Institute to screen anticancer drugs.
(§2) A MULTISKAN MS microplate reader purchased from Labsystems (Franklin, Massachusetts) was used to measure the formation of formazan as an increase in absorbance at a test wavelength of 540 nm and a reference wavelength of 690 nm. In the data analysis, data were expressed as mean values ± standard deviation (S.D.) of eight incubations (from eight wells) in one experiment. In each case, incubations were performed for 72 hours.

HaCaT cells [1] = test: MTT assay, proliferation/viability of HaCaT keratinocytes; format: cell-based, human; conditions: 72 hours; for Viability of Cells (Absorption: A540) HaCaT cells: MTT, 200 nM PLAP or rPLAP, 100 µM ATP, mean ± S.D. of eight wells
From the text: The immortalized human HaCaT keratinocyte cell line, isolated in 1988 [Boukamp, P., Petrussevska, R.T., Breitkreutz, D., Hornung, J., and Markham, A., “Normal keratinization in a spontaneously immortalized aneuploid human keratinocyte cell line,” J. Cell. Biol., 106, 761-771, 1988], was provided for these studies by the Institute of Dermatology, Szeged University, , Szeged, Hungary). HaCaT cells were maintained in 10% fetal bovine serum (FBS) and 1% penicillin-streptomycin -containing Dulbecco’s modified Eagle’s medium (DMEM) up to 80% confluency in an incubator (5% CO2, 37° C.). Cells were plated into 96 well plates at 20% confluency and incubated for 72 hours in an incubator (5% CO2, 37° C.) with 200 nM purified PLAP or rPLAP in the absence or presence of 100 µM ATP.
as §1, §2

shingles = test: Treatment of shingles in human subjects; format: in vivo; conditions: two subjects, recurrent painful shingles, oral, 4-times a day
Description: The PLAP cream can be used for the local treatment of Shingles or other skin lesions caused by reactivated HSV-1 or HSV-2 generally, but not always, along with treatment with a prescribed antiviral drug. The same carriers and additives may be used as described for the acne treatment, The recommended amount of PLAP per 1 gram carrier is 2.0 to 10.0 mg. Generally, the larger the lesion the more PLAP per 1 gram carrier is needed. As examples, if the area of the lesion is 10 cm^2 or smaller, 2 mg per 1 gram carrier is suitable. If the area of the lesion is larger than 10 cm^2 then, depending on the lesion’s size, the recommended concentration of PLAP is between 2.1 to 10.0 mg per 1 gram carrier. Local treatment of the lesion with PLAP cream is performed once daily along with oral administration of the prescribed antiviral drug (usually four-times a day). Local administration of the antiviral drug is not recommended. In case of shingles, when the lesion treated with placental alkaline phosphatase or an active derivative is smaller than 2.0 cm^2, the use of an antiviral drug is optional. In cases of skin lesions caused by HSV-1 or HSV-2, the use of an oral antiviral drug is optional regardless of the lesion’s size.
Two individuals (one person and one person) had recurrent painful shingles at 10-16 months intervals, usually lasting for 4-6 weeks without treatment, associated with pain lasting beyond 6 weeks that prevented them to get a good night sleep.
When a new recurrence of shingles occurred again, the same two subjects were co-treated with local PLAP cream (5 mg PLAP in 1-gram Vaselinum cholesterinatum) and oral acyclovir. The two subjects responded to this combination treatment similarly.
They started the treatment with acyclovir and PLAP cream on day 0. […] Complete healing of both subjects occurred by day 12 (the subject) and day 14 (the subject).
Two female individuals, had recurrent (practically yearly) moderate shingles (one had under the breast, the other had on the arm, both approximately the size of 1-2 cm^2) previously lasting for about 2-3 weeks. […]

acne lesion = test: Topical treatment of acne lesions in human subjects; format: in vivo; conditions: for visible effect on acne covered area: person, before PLAP treatment
From the text: Highly purified placenta derived PLAP, or essentially pure recombinant PLAP, or an essentially pure active derivative thereof, is dispersed in a suitable carrier and gently massaged onto the acne lesion. The carrier used in the invention is Vaselinum cholesterinatum, but it may be replaced by Vaselinum flavum or Vaselinum album. Vaselinum cholesterinatum consists of about 1.5 wt.-% cholesterol, about 5.0 wt.-% cerae lanae, and about 93.5 wt.-% Vaselinum flavum. In this invention, for a preparation containing PLAP or rPLAP in a carrier the term “PLAP cream” is used.
Other appropriate forms of PLAP containing compositions may contain other suitable carriers in the forms of gels, lotions, unguents, emollients, colloidal dispersions, suspensions, emulsions, oils, sprays, liposomes, non-ionic detergents, foams, mousses, and the like as used in the skin care industry with no damaging effects on the skin. Preferably, the chosen carrier would enable PLAP to exert its antiacne effect or at least would not reduce it. In addition, the carrier should not be comedogenic and should not inhibit interaction of PLAP with the acne lesion. In the preparation of the carrier-PLAP mixture, PLAP is first dissolved in distilled water or a suitable buffer and then mixed with the carrier. The PLAP cream contains highly purified PLAP or rPLAP, in the amount of 0.1 to 10 mg per one gram carrier gently massaged onto the area of acne lesion. The amount of PLAP depends on the severity of acne. In cases of light, moderate and severe acnes the recommended amount of PLAP per 1 gram carrier is 0.1 to 0.5 mg, 0.6 to 2 mg, and 2.1 to 10 mg PLAP, respectively. Before each daily treatment the acne lesion needs to be cleaned with a facial cleanser as recommended by the manufacturer. The length of the daily treatments is typically for about 3 weeks, but it may be extended until the lesion is healed.
Complete recovery of the original skin texture required about 5 weeks with no additional treatments needed between 3 to 5 weeks.
Complete recovery of the original skin texture required about 6 weeks with no additional treatments needed between 3 to 6 weeks.
Complete recovery of the original skin texture required about 8 weeks with no additional treatments needed between 4 to 8 weeks.
This idea was tested with 16-17-year-old males who started to develop acne during a 2 to 4-day period. Treatments (2-mg PLAP in 1-gram Vaselinum cholesterinatum) were applied at bedtime only once.

HaCaT cells [2] = test: [U-14C]ATP hydrolysis and adenosine formation in intact HaCaT cells; format: cell-based, human; conditions: 2 hours
Description: (§3) In these experiments, PLAP was incubated with human HaCaT cells and human 966 SK fibroblasts. The plasma membranes of both cell lines contain ectonucleotidases that hydrolyze ATP to result in the formation of adenosine. If PLAP binds ATP as reported earlier, it will compete with the ectonucleotidases for ATP. In this case, in the presence of PLAP the formation of adenosine, the final product of ATP hydrolysis, should be reduced. The experiment performed under this Example served to examine this possibility.
(§4) HaCaT and 966 SK cells were grown in 10% serum containing DMEM medium (0.1 ml) in 96-well plates to confluence. First, the medium was changed for serum-free medium. […] (0.1 mM) of [U-^14C] ATP (purchased from Amersham). Incubations in an incubator were performed for 2 hours. […] aliquots were withdrawn into small centrifuge tubes followed by the addition of 0.15 ml of chloroform methanol 2:1 mixture containing 1 mM adenosine (to help UV visualization and reduce cellular uptake of [U-^14C] Adenosine) to precipitate the proteins and eliminate lipids. After centrifugation, 5 µl aliquots of the lower phase were transferred to fluorescent PEI-cellulose (polyethyleneimine-impregnated cellulose) plates, and after drying the plates they were developed with water in a flat bottom chamber. After drying and visualizing the adenosine and nucleotide spots under UV (all nucleotides remained in the application spots), the respective areas were cut out, placed in scintillation vials, and radioactivity was measured in a liquid scintillation spectrometer. Data is the mean of three independent determinations (from three separate wells) ± S.D. in the same experiment.

CCD 966 SK cells = test: [U-14C]ATP hydrolysis and adenosine formation in intact CCD 966 SK fibroblasts; format: cell-based, human; conditions: 2 hours
Description: as §3, §4

[3] = CCD 966 SK fibroblasts, agent alone
[4] = PLAP, 500 nM, 0.1 mM [U-14C]ATP, mean ± S.D. of three wells

Molecule: Nc1ncnc2c1ncn2[C@@H]1O[C@H](COP(=O)(O)OP(=O)(O)OP(=O)(O)O)[C@@H](O)[C@H]1O [ATP, adenosine 5′ triphosphate, reference compound]
- effect on proliferation (in words) (CCD 966 SK fibroblasts; [3]): no effects
- Viability of Cells (Absorption: A540) CCD 966 SK (CCD 966 SK fibroblasts): 0.686±0.029
- effect on proliferation (in words) (HaCaT cells [1]; HaCaT cells, agent alone): no effects
- Viability of Cells (Absorption: A540) HaCaT cells (HaCaT cells [1]): 0.841±0.037

Molecule: Nc1nc2c(ncn2COCCO)c(=O)[nH]1 [acyclovir]
- effect on pain (shingles): no significant effect on pain
- time of full healing of shingles (shingles): by the end of third week
- remission of shingles (shingles; in 10-12 days): 40-50%

Molecule: O=C(OOC(=O)c1ccccc1)c1ccccc1 [benzoyl peroxide]
- visible effect on acne covered area (acne lesion; left side of face, as prescribed for 2 months): only small visible positive effects
- visible effect on acne covered area (acne lesion; left side of face, as prescribed for 3 months): only small visible positive effects
- visible effect on acne covered area (acne lesion; right side of face, as prescribed for 2 months): only small visible positive effects
- visible effect on acne covered area (acne lesion; right side of face, as prescribed for 3 months): only small visible positive effects

B1: PLAP: full length placental alkaline phosphatase, highly purified from commercial PLAP (Sigma-Aldrich) (protein, UniProt P05187 23-506, looked up)
Alkaline phosphatase, …: IIPVEEENPDFWNREAAEALGAAKKLQPAQTAAKNLIIFLGDGMGVSTVTAARILKGQKKDKLGPEIPLAMDRFPYVALSKTYNVDKHVPDSGATATAYLCGVKGNFQTIGLSAAARFNQCNTTRGNEVISVMNRAKKAGKSVGVVTTTRVQHASPAGTYAHTVNRNWYSDADVPASARQEGCQDIATQLISNMDIDVILGGGRKYMFRMGTPDPEYPDDYSQGGTRLDGKNLVQEWLAKRQGARYVWNRTELMQASLDPSVTHLMGLFEPGDMKYEIHRDSTLDPSLMEMTEAALRLLSRNPRGFFLFVEGGRIDHGHHESRAYRALTETIMFDDAIERAGQLTSEEDTLSLVTADHSHVFSFGGYPLRGSSIFGLAPGKARDRKAYTVLLYGNGPGYVLKDGARPDVTESESGSPEYRQQSAVPLDEETHAGEDVAVFARGPQAHLVHGVQEQTFIAHVMAFAACLEPYTACDLAPPAGTTD
- formation of radiolabeled adenosine (in words) (HaCaT cells [2]): dramatic reduction
- hydrolysis of ATP and related nucleotides (in words) (HaCaT cells [2]): greatly reduced the hydrolysis
- Total [U-14C] nucleotide (HaCaT cells [2]; [4]): 1,572,853 ± 33,737 c.p.m./well
- [U-14C] Adenosine (HaCaT cells [2]; [4]): 71,048 ± 2,220 c.p.m./well
- effect on proliferation (in words) (CCD 966 SK fibroblasts; [3]): clearly stimulated proliferation
- Viability of Cells (Absorption: A540) CCD 966 SK (CCD 966 SK fibroblasts): 0.853±0.040
- effect on proliferation (in words) (CCD 966 SK fibroblasts; fibroblasts (CCD 966 SK), in the presence of ATP): inhibited the proliferation
- formation of radiolabeled adenosine (in words) (CCD 966 SK cells): dramatic reduction
- hydrolysis of ATP and related nucleotides (in words) (CCD 966 SK cells): greatly reduced the hydrolysis
- Total [U-14C] nucleotide (CCD 966 SK cells; [4]): 1,653,949 ± 42,791 c.p.m./well
- [U-14C] Adenosine (CCD 966 SK cells; [4]): 34,019 ± 4,892 c.p.m./well
- effect on proliferation (in words) (HaCaT cells [1]; HaCaT cells, agent alone): clearly stimulated proliferation
- Viability of Cells (Absorption: A540) HaCaT cells (HaCaT cells [1]): 1.086± 0.047
- effect on proliferation (in words) (HaCaT cells [1]; epidermal (HaCaT) cells, in the presence of ATP): inhibited the proliferation
- time to complete healing of acne (acne lesion; 16-17-year-old males, acne developing during 2 to 4 days, 2-mg PLAP in 1-gram Vaselinum cholesterinatum, applied once at bedtime): 2 to 5 days
- scar tissue formation (acne lesion; 16-17-year-old males, early acne, 2-mg PLAP in 1-gram carrier, applied once): without any scar tissue formation
